Target: the molecule itself
Experiment: SEC; […], pH 8.0, 150 mM NaCl; flow rate 0.4 ml/min; […]

B1: ResR/McdR (ResR_(1-225)), 6x His-tagged (natural protein)
chain: MTQLVTRARSARGSTLGEQPRQDQLDFADHTGTAGDGNDGAAAASGPVQPGLFPDDSVPDELVGYRGPSACQIAGITYRQLDYWARTSLVVPSIRSAAGSGSQRLYSFKDILVLKIVKRLLDTGISLHNIRVAVDHLRQRGVQDLANITLFSDGTTVYECTSAEEVVDLLQGGQGVFGIAVSGAMRELTGVIADFHGERADGGESIAAPEDELASRRKHRDRKIG
notes: also called Rv1830; ERDMAN_2020; not shown: His6, N-terminal, kept
- binding result: binds

— article PMC10336103, “ResR/McdR-regulated protein translation machinery contributes to drug resilience in Mycobacterium tuberculosis” (Communications Biology, 2023)
